The results in this text go back to patent publication US20060235215A1 (published 2006).

Experiment in all cases: yeast two-hybrid
Assay [1] has as its target T1, O. sativa Calreticulin Precursor, bait fragment aa 1-150 (Oryza sativa, UniProt Q9SLY8 1-150).
T1 construct: bait; also called OsCRTC; PN20544

For assay [2], the target named is T2, OsSGT1, bait fragment aa 200-368 (Oryza sativa, UniProt Q0JL44 200-367).
T2 construct: bait; also called PN20285
T2 sequence: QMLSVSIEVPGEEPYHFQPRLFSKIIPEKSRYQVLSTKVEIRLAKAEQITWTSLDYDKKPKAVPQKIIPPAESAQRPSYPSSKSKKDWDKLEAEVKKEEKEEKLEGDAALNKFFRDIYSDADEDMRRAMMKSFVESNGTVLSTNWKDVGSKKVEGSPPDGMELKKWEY
As to the method: (§1) Yeast carrying the target gene construct was combined with yeast carrying the activation domain library. The two yeast strains mated to form diploid yeast and were plated on media that selected for expression of one or more Ga14p-responsive reporter genes. Thus, both hybrid proteins (i.e., the target “bait” protein and the activation domain “prey” protein) were expressed in a yeast reporter strain where an interaction between the test proteins results in transcription of the reporter genes […]. Colonies that arose after incubation were selected for further characterization. The activation domain plasmid was isolated from each colony obtained in the two-hybrid search. The sequence of the insert in this construct was obtained by sequence analysis (e.g., Sanger's dideoxy nucleotide chain termination method; see Ausubel et al., 1988, including updates up to 2002). Thus, the identity of positives obtained from these searches was determined by sequence analysis against proprietary and public (e.g., GENBANK®) nucleic acid and protein databases.
The rice SGT1 protein shares 74 and 75% amino acid sequence similarity with two Arabidopsis thaliana SGT1 homologs and 45% amino acid sequence similarity with Saccharomyces cerevisiae SGT1. In yeast, SGT1 is required for cell-cycle progression at the G1/S-phase and G2/M-phase transitions. In A. thaliana, SGT1b interacts with Rar1 and mediates disease resistance. Thus, in plants, SGT1 likely controls processes that are fundamental to disease resistance and development. The rice OsSGT1 protein was chosen as a bait for these interaction studies based on its potential relevance to disease resistance and development.

Assay [3] concerns the target T3, O. sativa Serine/Threonine Protein Phosphatase PP2A-2, Catalytic Subunit, bait fragment aa 150-308 (Oryza sativa, UniProt A2XN40 150-307).
T3 construct: bait; also called OsPP2A-2; PN20254
T3 sequence: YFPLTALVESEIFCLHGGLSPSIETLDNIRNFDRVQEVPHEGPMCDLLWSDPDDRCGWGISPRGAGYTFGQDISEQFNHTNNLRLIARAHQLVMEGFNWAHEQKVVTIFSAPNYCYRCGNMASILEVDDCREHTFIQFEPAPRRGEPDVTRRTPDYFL

The target in assay [4] is T4, O. sativa Chitinase, Class III, bait fragment aa 10-200 (Oryza sativa).
T4 construct: bait; also called OsCHIB1; PN19651
T4 chain: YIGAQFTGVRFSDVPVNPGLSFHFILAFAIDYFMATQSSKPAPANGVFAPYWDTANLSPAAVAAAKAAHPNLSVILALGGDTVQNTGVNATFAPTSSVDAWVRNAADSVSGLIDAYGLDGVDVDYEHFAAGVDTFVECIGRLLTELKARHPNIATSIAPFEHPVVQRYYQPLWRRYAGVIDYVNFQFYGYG
As for the experimental part: as §1
This example provides newly characterized rice proteins interacting with a rice chitinase, class III (OsCHIB1), and with rice cellulose synthase catalytic subunit, RSW1-like (OsCS). An automated, high-throughput yeast two-hybrid assay technology (provided by Myriad Genetics Inc., Salt Lake City, Utah) was used to search for protein interactions with the chitinase and cellulose synthase bait proteins.

T1 sequence (Q9SLY8 1-150): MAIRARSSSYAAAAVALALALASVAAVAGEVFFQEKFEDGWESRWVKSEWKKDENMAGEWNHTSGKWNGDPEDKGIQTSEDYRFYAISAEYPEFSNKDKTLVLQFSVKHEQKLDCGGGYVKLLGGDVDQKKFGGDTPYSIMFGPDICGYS

B1: Novel Protein PN29950, prey clone aa 7-103 (other)
chain: TANLVGQITTTCTDDISVNRSAENSSQKNIPLDGVSAQSIKPSASSRSEPVGLGGGLQPKRRSRTAKPPGSSSDTGEVVNSSRISNSQNAVSMGQQV
notes: prey; AD fusion; output trait library; also called OsPN29950
For B1, the binding result in assay [1] is listed as “binds”.

B2: OsSGT1, prey clone aa 9-227 (other)
chain: LESKAKAAFVDDDFELAAELYTQAIEASPATAELYADRAQAHIKLGNYTEAVADANKAIELDPSMHKAYLRKGAACIRLEEYQTAKAALELGYSFASGDSRFTRLMKECDERIAEELTEVPVKKAEDGAAAPSVASFVEEKDDAANMDNTPPMVEVKPKYRHDFYNSATEVVLTIFAKGVPAENVVVDFGEQMLSVSIEVPGEEPYHFQPRLFSKIIPE
notes: prey; AD fusion; output trait library; also called PN20285
With B2, in assay [2], the binding result is listed as “binds”.

B3: HSP70-like PN23949, prey clone aa 244-418 (other)
chain: HKLKSSLILMPMVSLLLLLLIRVLGRNRISPSPALSTLPKDEVERMVEEADKFAQEDKEKRDAIDTKNQADSVVYQTEKQLKELGDKVPAPVKEKVDAKLNELKEAIAGGSTQSMKDAMAALNEEVMQIGQAMYNQQPNAGAAGPTPGADAGPTSSGGKGPNDGDVIDADFTDSN
notes: prey; AD fusion; output trait library
Consider B3, for which, in assay [2], the binding result was “binds”.

B4: Novel Protein PN24162, Porin-like, Voltage-Dependent Anion Channel Protein, prey clone aa 28-164 (other)
chain: QKLTVSTVSSSGVGLTSTAVKKGGLYTLDVSSVYKYKSTLVDVKVDTESNISTTLTVFDVLPSTKLVTSVKLPDYNSGKVEMQYFHENASFATAVGMKPSPVVEFSGTAGAQGLAFGAEAGFDTATGKFTKYSAAIG
notes: prey; AD fusion; output trait library; also called OsPN24162
Regarding B4, in assay [3], the binding result is given as “binds”.

B5: O. sativa Glutelin CAA33838, prey clone aa 5-155 (other)
chain: VFSRFSIYFCVLLLCHGSMAQLFNPSTNPWHSPRQGSFRECRFDRLQAFEPLRKVRSEAGVTEYFDEKNELFQCTGTFVIRRVIQPQGLLVPRYTNIPGVVYIIQGRGSMGLTFPGCPATYQQQFQQFSSQGQSQSQKFRDEHQKIHQFRQ
notes: prey; AD fusion; output trait library; also called OsCAA33838; PN24775
For the molecule B5, the binding result in assay [3] is “binds”.

B6: Novel Protein PN22020, Fragment, Similar to A. thaliana Putative Protein, prey clone aa 76-170 (other)
chain: ANATDGVKPLVGSARLPLRDVLADTGIGARASRSLRLKRPSGRPHGRLEVRVAVREPKRYYDPSPAYPAPYHQQTNRDPYAYGNTTTGGYGYAYG
notes: prey; AD fusion; input trait library; three clones; also called OsPN22020
Consider B6, for which, in assay [4], the binding result is recorded as “binds”.

B7: Elicitor responsive protein, prey clone aa 54-144 (other)
chain: ETFMFSVTHNATELIIKLMDSDSGTDDDFVGEATISLEAIYTEGSIPPTVYNVVKEEEYRGEIKVGLTFTPEDDRDRGLSEEDIGGWKQSS
notes: prey; AD fusion; input trait library; also called OsERP; PN20696
With B7, in assay [2], the binding result is reported as “binds”.

B8: Novel Protein PN22020, Fragment, Similar to A. thaliana Putative Protein, prey clone aa 128-170 (other)
chain: AVREPKRYYDPSPAYPAPYHQQTNRDPYAYGNTTTGGYGYAYG
notes: prey; AD fusion; input trait library; also called OsPN22020
With B8, in assay [4], the binding result is “binds”.

B9: Novel Protein PN29950, prey clone aa 50-343 (other)
chain: ASSRSEPVGLGGGLQPKRRSRTAKPPGSSSDTGEVVNSSRISNSQNAVSMGQQVLQALASQNTNVNRSHVTDSPLPSTTSQFSGGMPPRRQGGEGQVDFGSMISSVLNNPAFGNLLSNVAEQTGMGSAGDLRNMVEECAQSPAIMDTMSNLVQNVDGSGRGQGGIDLSRMMQQMMPVVSQVLGGAGARPAGTNSGQSRLQPRRSDMRVDDASDYGNSQIDLHQAREHIEQHDSPRDIFGAVLETAAQAYGEDESIEDMLEELVSDPELTDDYLKLLLQQVRQRIQSASQSGNQS
notes: as for B1
Regarding B9, in assay [1], the binding result is “binds”.

B10: Novel Protein PN29950, prey clone aa 138-343 (other)
chain: RRQGGEGQVDFGSMISSVLNNPAFGNLLSNVAEQTGMGSAGDLRNMVEECAQSPAIMDTMSNLVQNVDGSGRGQGGIDLSRMMQQMMPVVSQVLGGAGARPAGTNSGQSRLQPRRSDMRVDDASDYGNSQIDLHQAREHIEQHDSPRDIFGAVLETAAQAYGEDESIEDMLEELVSDPELTDDYLKLLLQQVRQRIQSASQSGNQS
notes: prey; AD fusion; output trait library; two clones; also called OsPN29950
Take B10: in assay [1], the binding result is “binds”.
